Measurements: the Human Domainome abundance scans (Beltran et al. 2025)
± gives the uncertainty stated by the source.

B1: Intersectin-1, residues 909 to 971; numbered along this chain, Q15811 (parent)
chain: QGEKVEGLQAQALYPWRAKKDNHLNFNKNDVITVLEQQDMWWFGEVQGQKGWFPKSYVKLISG
B2: Ventral anterior homeobox 1, residues 102 to 157; numbered along this chain, Q5SQQ9 (parent)
chain: RTRTSFTAEQLYRLEMEFQRCQYVVGRERTELARQLNLSETQVKVWFQNRRTKQKK

Variants of: B1
Experiment: abundance fitness (aPCA) (normalised: wild type 0, dead -1); higher = more abundant; growth selection in yeast, the domain comes from the species named
Details: Homo sapiens

Abundance fitness: each site, then its substitutions
Q1: W -0.34 ± 0.16; V 0.158 ± 0.4; S -0.334 ± 0.36; M -0.208 ± 0.31; R -0.299 ± 0.13; T -0.111 ± 0.28; C -0.06 ± 0.19; E -0.335 ± 0.31; G -0.083 ± 0.12; L -0.164 ± 0.17; K -0.496 ± 0.11
G2: M 0.113 ± 0.29; L -0.386 ± 0.18; C -0.286 ± 0.16; S -0.018 ± 0.085; K 0.076 ± 0.28; A -0.028 ± 0.12; N -0.175 ± 0.3; R -0.38 ± 0.14; T -0.051 ± 0.2; D -0.265 ± 0.086; E -0.001 ± 0.17; P -0.423 ± 0.19
A12: K -0.773 ± 0.48; G -0.404 ± 0.07; W -1.02 ± 0.44; R -0.997 ± 0.21; C -0.474 ± 0.21; S -0.577 ± 0.2; T -0.841 ± 0.32
E6: C -0.174 ± 0.2; P 0.074 ± 0.12; F -0.178 ± 0.24; A -0.139 ± 0.11; K -0.306 ± 0.27; T -0.215 ± 0.12; M -0.069 ± 0.25; N -0.079 ± 0.19; R -0.108 ± 0.097; I -0.29 ± 0.23; Y -0.119 ± 0.24; D -0.221 ± 0.26; V -0.122 ± 0.17; S -0.16 ± 0.12; L -0.1 ± 0.12
Q11: K -0.142 ± 0.12; R -0.067 ± 0.075; C -0.459 ± 0.21; T -0.098 ± 0.13; P -1.03 ± 0.42; E -0.33 ± 0.13; M -0.119 ± 0.14; V -0.364 ± 0.16; S -0.066 ± 0.086; Y -0.09 ± 0.26; G -0.498 ± 0.093; H -0.131 ± 0.29; D -0.728 ± 0.47; W -0.098 ± 0.14; A -0.239 ± 0.094; L -0.247 ± 0.098
L8: V 0.14 ± 0.082; Y 0.112 ± 0.3; A 0.043 ± 0.092; I -0.136 ± 0.31; P -0.345 ± 0.2; S -0.117 ± 0.11; K -0.136 ± 0.15; Q 0.05 ± 0.13; W -0.152 ± 0.11; G -0.048 ± 0.066; R -0.087 ± 0.072; T -0.039 ± 0.18; M 0.094 ± 0.13; E -0.003 ± 0.11; H -0.361 ± 0.3; D -0.236 ± 0.13
E3: K -0.079 ± 0.18; N 0.02 ± 0.17; R -0.074 ± 0.11; S -0.319 ± 0.25; H -0.088 ± 0.46; A -0.293 ± 0.13; G -0.165 ± 0.1; C -0.153 ± 0.29; Q 0.026 ± 0.24; M -0.312 ± 0.27; V -0.293 ± 0.15; T -0.305 ± 0.26; L -0.268 ± 0.22; F -0.169 ± 0.29; D -0.021 ± 0.26; I 0.237 ± 0.37; W -0.332 ± 0.2
V5: W -0.106 ± 0.22; D 0.126 ± 0.4; E -0.126 ± 0.17; L -0.364 ± 0.14; A -0.008 ± 0.11; I -0.151 ± 0.1; M -0.073 ± 0.49; C -0.488 ± 0.29; G -0.155 ± 0.084; Q -0.029 ± 0.14; T -0.237 ± 0.16; S -0.115 ± 0.2; P -0.07 ± 0.21; H -0.657 ± 0.31
G7: S 0.006 ± 0.12; Q 0.164 ± 0.41; R -0.227 ± 0.4; V 0.076 ± 0.33; D -0.095 ± 0.12
A10: M -0.223 ± 0.15; E -0.821 ± 0.29; W -0.183 ± 0.14; T -0.746 ± 0.24; V 0.095 ± 0.093; L -0.272 ± 0.15; C -0.174 ± 0.36; K -0.152 ± 0.16; Y 0.003 ± 0.24; G -0.212 ± 0.07; R -0.807 ± 0.17; S -0.506 ± 0.12
K4: H -0.168 ± 0.3; A -0.159 ± 0.12; C 0.207 ± 0.47; F -0.193 ± 0.27; Q -0.39 ± 0.16; P -0.29 ± 0.27; W -0.08 ± 0.17; S -0.014 ± 0.098; N -0.026 ± 0.17; L -0.248 ± 0.13; V -0.168 ± 0.18; Y -0.039 ± 0.23; G -0.588 ± 0.15; E -0.11 ± 0.13; R -0.126 ± 0.1
L13: N -0.024 ± 0.42; C -0.268 ± 0.28; G -0.709 ± 0.13; I -0.393 ± 0.46; E -0.267 ± 0.26; Q -0.2 ± 0.28; D -0.158 ± 0.29; A -0.271 ± 0.22; M -0.204 ± 0.29
Q9: E 0.008 ± 0.12; C -0.109 ± 0.17; H 0.011 ± 0.27; A -0.07 ± 0.092; W -0.109 ± 0.097; Y -0.047 ± 0.18; K -0.015 ± 0.14; S -0.083 ± 0.098; L -0.133 ± 0.12; I -0.172 ± 0.21; M 0.095 ± 0.17; P -0.17 ± 0.2; T -0.076 ± 0.14; N 0.012 ± 0.28; V -0.093 ± 0.095; F -0.159 ± 0.2; G -0.331 ± 0.071

Variants of: B2
Experiment: as above
Details: Homo sapiens

Abundance fitness: each site, then its substitutions
K55: Y -0.199 ± 0.23
